# Laboratory results taken from patent US9289468B2, “Fusion protein comprising circularly permuted form of trail/Apo2L, coding gene and use thereof” (Beijing Sunbio Biotech Co. Ltd., priority 2011, dated 2016).
# Key:
# H460 cells = test: Time-effect relationship in killing lung cancer cell line (phase contrast morphology); assay type: cell-based, human; settings: 50 ng/ml
# Experimental: FIG. 1. Observation of the killing effect of NCPT-1.M1 on H460 cells under phase contrast microscope.
# At 37° C., H460 cells (ATCC) were adherently cultured to logarithmic growth phase in RPMI1640 medium containing 10% FBS in cell culture flask in 5% CO2 incubator.
# [1] = test system: human MM RPMI8226 tumor cells; test: Apoptosis-inducing activity in vivo, RPMI8226 xenograft; parameters: species or system Balb/c nu athymic nude mice
# From the text: Athymic nude mice were subcutaneously inoculated with human MM RPMI8226 tumor cells and treated with NCPT-1.M1, then tumor tissue was resected and subjected to conventional HE staining (A, B) and TUNEL staining of apoptotic cells (C, D).
# Balb/c nu athymic nude mice (Beijing Huafukang Biotechnology Co., Ltd.) were subcutaneously inoculated with human MM RPMI8226 tumor cells. When the tumor grew to the volume of 700-800 mm3, the mice were divided into a control group (n=3) and a CPT treatment group (n=3), and were intraperitoneally injected with control or NCPT-1.M1 at a dose of 15 mg/kg once a day for 3 consecutive days. On day 4, the tumor volumes were measured (method same as the above), all animals were sacrificed, the tumors were resected and fixed in 10% formaldehyde solution. The tumor tissues were embedded in paraffin, cut into sections, and HE stained following the conventional methods. The apoptotic assay of the paraffin-embedded tissue sections were carried out following instructions of TUNEL Apoptosis Detection Kit (ZK-8005, Beijing Zhongshan Golden Bridge Biotechnology Co., Ltd.). […] To the contrary, the nucleus of normal cells are light blue or blue (FIG. 7A). Upon TUNEL staining, the nuclei of apoptotic cells are stained as brown (FIG. 7D).
molecule,measurement,setting,value
"NCPT-1.M1: MG+His6+NCPT-1 fusion protein, SEQ ID NO: 5 (protein, NCPT-1.M1 polypeptide sequence) MGHHHHHHTLSSPNSKNEKALGRKINSWESSRSGHSFLSNLHLRNGELVIHEKGFYYIYSQTYFRFQEEIKENTKNDKQMVQYIYKYTSYPDPILLMKSARNSCWSKDAEYGLYSIYQGGIFELKENDRIFVSVTNEHLIDMDHEASFFGAFLVGGGGGGRVAAHITGTRGRSNT",incubation time for appearance of morphological apoptosis changes,H460 cells,1-2 h
same,incubation time resulting in apoptosis of maximum number of cells,H460 cells,6 h
same,average tumor volume after treatment,"[1]; 15 mg/kg i.p. once a day for 3 consecutive days, day 4",286 mm^3
same,apoptosis of tumor cells in tumor tissue (HE and TUNEL staining),[1]; 15 mg/kg i.p. once a day for 3 days,can quickly result in apoptosis of a lot of MM tumor cells
same,average tumor volume before dosing,"[1]; RPMI8226 xenograft, before dosing",798 mm^3
